# Source: US20130065244A1, “METHOD FOR PRODUCING cAMP USING [sequence] OLFACTORY RECEPTOR” (published 2013)
# B1: chimeric olfactory receptor chimera3 (receptor)
# chain: MNGTEGPNFYVPFSNKTGVVEQKLISEEDLEFMGAGALALGASEPCNLSSAAPLPDGAATAARLLVLASPPASLLPPASEGSAPLSQQWTAGMGLLLALIVLLIVVGNVLVIVAIAKTPRLQTLTNLTRPMYFFLSHLSFVDFCYSSIVAPKMLVNLVTMNRGISFVGCLVQFFFFCTFVVTESFLLGVMAYDRFVAIRNPLLYTVAMSQRLCAMLVLGSYAWGVVCSLILTCSALNLSFYGFNMINHFFCEFSSLLSLSRSDTSVSQLLLFVFATFNEISTLLIILLSYVLIVVTILKMKSASGRRKAFSTCASHLTAITIFHGTILFLYCVPNSKNSRHTVKVASVFYTVVIPMLNPLIYSLRNKSRDFRKAFQRLLCCARRAACRRRAAHGDRPRASGCLARAGPPPSPGAPSDDDDDDAGATPPARLLEPWAGCNGGTTTVDSDSSLDEPGRQGFSSESKV
# B2: Rho-mOREG (mouse olfactory receptor for eugenol with N-terminal Rho tag) (receptor)
# chain: MNGTEGPNFYVPFSNKTGVVMTLSDGNHSGAVFTLLGFSDYPELTIPLFLIFLTIYSITVVGNIGMIVIIRINPKLHIPMYFFLSHLSFVDFCYSSIVAPKMLVNLVTMNRGISFVGCLVQFFFFCTFVVTESFLLGVMAYDRFVAIRNPLLYTVAMSQRLCAMLVLGSYAWGVVCSLILTCSALNLSFYGFNMINHFFCEFSSLLSLSRSDTSVSQLLLFVFATFNEISTLLIILLSYVLIVVTILKMKSASGRRKAFSTCASHLTAITIFHGTILFLYCVPNSKNSRHTVKVASVFYTVVIPMLNPLIYSLRNKDVKDTVKKIIGTKVYSS
# B3: Rho-myc-mOREG (mouse olfactory receptor for eugenol with Rho tag and myc epitope tag) (receptor)
# chain: MNGTEGPNFYVPFSNKTGVVEQKLISEEDLEFMTLSDGNHSGAVFTLLGFSDYPELTIPLFLIFLTIYSITVVGNIGMIVIIRINPKLHIPMYFFLSHLSFVDFCYSSIVAPKMLVNLVTMNRGISFVGCLVQFFFFCTFVVTESFLLGVMAYDRFVAIRNPLLYTVAMSQRLCAMLVLGSYAWGVVCSLILTCSALNLSFYGFNMINHFFCEFSSLLSLSRSDTSVSQLLLFVFATFNEISTLLIILLSYVLIVVTILKMKSASGRRKAFSTCASHLTAITIFHGTILFLYCVPNSKNSRHTVKVASVFYTVVIPMLNPLIYSLRNKDVKDTVKKIIGTKVYSS
# B4: chimeric olfactory receptor chimera1 (receptor)
# chain: MNGTEGPNFYVPFSNKTGVVEQKLISEEDLEFMTLSDGNHSGAVFTLLGFSDYPELTIPLFLIFLTIYSITVVGNIGMIVIIRINPKLHIPMYFFLSHLSFVDFCYSSIVAPKMLVNLVTMNRGISFVGCLVQFFFFCTFVVTESFLLGVMAYDRFVAIRNPLLYTVAMSQRLCAMLVLGSYAWGVVCSLILTCSALNLSFYGFNMINHFFCEFSSLLSLSRSDTSVSQLLLFVFATFNEISTLLIILLSYVLIVVTILKMKSASGRRKAFSTCASHLTAITIFHGTILFLYCVPNSKNSRHTVKVASVFYTVVIPMLNPLIYSLRNKDFRKAFQRLLCCARRAACRRRAAHGDRPRASGCLARAGPPPSPGAPSDDDDDDAGATPPARLLEPWAGCNGGTTTVDSDSSLDEPGRQGFSSESKV
# B5: chimeric olfactory receptor chimeraIC3 (receptor)
# chain: MNGTEGPNFYVPFSNKTGVVEQKLISEEDLEFMTLSDGNHSGAVFTLLGFSDYPELTIPLFLIFLTIYSITVVGNIGMIVIIRINPKLHIPMYFFLSHLSFVDFCYSSIVAPKMLVNLVTMNRGISFVGCLVQFFFFCTFVVTESFLLGVMAYDRFVAIRNPLLYTVAMSQRLCAMLVLGSYAWGVVCSLILTCSALNLSFYGFNMINHFFCEFSSLLSLSRSDTSVSQLLLFVFATFNEISTLLIILLSYVFREAQKQVKKIDSCERRFLSGPPRPPSPAPSPSPGPPRPADSLANGRSSKRRPSRLVALREQKAFSTCASHLTAITIFHGTILFLYCVPNSKNSRHTVKVASVFYTVVIPMLNPLIYSLRNKDVKDTVKKIIGTKVYSS
# B6: chimeric olfactory receptor chimeraIC3-IC4 (receptor)
# chain: MNGTEGPNFYVPFSNKTGVVEQKLISEEDLEFMTLSDGNHSGAVFTLLGFSDYPELTIPLFLIFLTIYSITVVGNIGMIVIIRINPKLHIPMYFFLSHLSFVDFCYSSIVAPKMLVNLVTMNRGISFVGCLVQFFFFCTFVVTESFLLGVMAYDRFVAIRNPLLYTVAMSQRLCAMLVLGSYAWGVVCSLILTCSALNLSFYGFNMINHFFCEFSSLLSLSRSDTSVSQLLLFVFATFNEISTLLIILLSYVFREAQKQVKKIDSCERRFLSGPPRPPSPAPSPSPGPPRPADSLANGRSSKRRPSRLVALREQKAFSTCASHLTAITIFHGTILFLYCVPNSKNSRHTVKVASVFYTVVIPMLNPLIYSLRNKDFRKAFQRLLCCARRAACRRRAAHGDRPRASGCLARAGPPPSPGAPSDDDDDDAGATPPARLLEPWAGCNGGTTTVDSDSSLDEPGRQGFSSESKV
# B7: chimeric olfactory receptor chimeraTM7 (receptor)
# chain: MNGTEGPNFYVPFSNKTGVVEQKLISEEDLEFMTLSDGNHSGAVFTLLGFSDYPELTIPLFLIFLTIYSITVVGNIGMIVIIRINPKLHIPMYFFLSHLSFVDFCYSSIVAPKMLVNLVTMNRGISFVGCLVQFFFFCTFVVTESFLLGVMAYDRFVAIRNPLLYTVAMSQRLCAMLVLGSYAWGVVCSLILTCSALNLSFYGFNMINHFFCEFSSLLSLSRSDTSVSQLLLFVFATFNEISTLLIILLSYVLIVVTILKMKSASGRRKAFSTCASHLTAITIFHGTILFLYCVPNSKNSRHTPDRLFVFFNWLGYANSAFNPIIYCRSPDFRKAFQRLLCCARRAACRRRAAHGDRPRASGCLARAGPPPSPGAPSDDDDDDAGATPPARLLEPWAGCNGGTTTVDSDSSLDEPGRQGFSSESKV
# Molecular target: Gαolf (G protein alpha subunit which is specifically expressed on an olfactory epithelium) (mouse) (UniProt Q8CGK7)
# Test: not given
row,"concentration of cAMP (EIA, normalised to protein) after isoproterenol [pmol/µg]",Molecule
1,0.956,beta-1 adrenergic receptor (β1AR)

# Molecular target: Gαolf (G protein alpha subunit which is specifically expressed on an olfactory epithelium) (mouse, UniProt Q8CGK7)
# Test: cell-based or functional assay
row,concentration increase value of the cAMP (300 µM eugenol minus 0 µM) [pmol/microgram],Molecule
1,0.0009,B1
2,0.0061,B2
3,0.0109,B3
4,0.0185,B4
5,0.0017,B5
6,0.004,B6
7,0.0056,B7
